Data taken from patent US20250320281A1.

Columns and labels:
[1] = target: HIV-1 Env of isolate MGRM-C-015 (HIV-1); assay: cell-based or functional assay
[2] = target: HIV-1 Env of isolate MGRM-C-014 (HIV-1); assay: cell-based or functional assay
[3] = target: HIV-1 92TH021 Env (pseudovirus) (HIV-1); assay: cell-based or functional assay
[4] = target: HIV-1 Env of pseudovirus isolate MGRM-G-019 (HIV-1); assay: cell-based or functional assay
[5] = target: HIV-1 Env of isolate MGRM-C-006 (HIV-1); assay: cell-based or functional assay
[6] = target: HIV-1 Env of isolate MGRM-C-012 (HIV-1); assay: cell-based or functional assay
[7] = target: HIV-1 Env of isolate MGRM-C-017 (HIV-1); assay: cell-based or functional assay
[8] = target: HIV-1 Env of pseudovirus isolate MGRM-G-011 (HIV-1); assay: cell-based or functional assay
[9] = target: HIV-1 Env of pseudovirus isolate MGRM-G-027 (HIV-1); assay: cell-based or functional assay
[10] = target: HIV-1 Env of pseudovirus isolate MGRM-G-004 (HIV-1); assay: cell-based or functional assay
[11] = target: HIV-1 Env of isolate MGRM-C-020 (HIV-1); assay: cell-based or functional assay
[12] = target: HIV-1 Env of isolate MGRM-C-001 (HIV-1); assay: cell-based or functional assay
[13] = target: HIV-1 Env of isolate MGRM-C-008 (HIV-1); assay: cell-based or functional assay
[14] = target: HIV-1 92UG024 Env (pseudovirus) (HIV-1); assay: cell-based or functional assay
[15] = target: HIV-1 Env of pseudovirus isolate MGRM-G-006 (HIV-1); assay: cell-based or functional assay
[16] = target: HIV-1 Env of isolate MGRM-C-007 (HIV-1); assay: cell-based or functional assay
[17] = target: HIV-1 Env of isolate MGRM-C-009 (HIV-1); assay: cell-based or functional assay
[18] = target: HIV-1 Env of isolate MGRM-C-004 (HIV-1); assay: cell-based or functional assay
[19] = target: HIV-1 CMU02 Env (pseudovirus) (HIV-1); assay: cell-based or functional assay
[20] = target: HIV-1 92UG005 Env (pseudovirus) (HIV-1); assay: cell-based or functional assay
[21] = target: HIV-1 Env of pseudovirus isolate MGRM-G-013 (HIV-1); assay: cell-based or functional assay
[22] = target: HIV-1 Env of isolate MGRM-C-022 (HIV-1); assay: cell-based or functional assay
[23] = target: envelope of aMLV pseudovirus (negative control); assay: cell-based or functional assay
[24] = target: HIV-1 Env of pseudovirus isolate MGRM-G-001 (HIV-1); assay: cell-based or functional assay
[25] = target: HIV-1 Env of pseudovirus isolate MGRM-G-016 (HIV-1); assay: cell-based or functional assay
[26] = target: HIV-1 NL43 Env (pseudovirus) (HIV-1); assay: cell-based or functional assay
[27] = target: HIV-1 Env of isolate MGRM-C-019 (HIV-1); assay: cell-based or functional assay
[28] = target: HIV-1 Env of isolate MGRM-C-025 (HIV-1); assay: cell-based or functional assay
[29] = target: HIV-1 Env of pseudovirus isolate MGRM-G-017 (HIV-1); assay: cell-based or functional assay
[30] = target: HIV-1 Env of isolate MGRM-C-024 (HIV-1); assay: cell-based or functional assay
[31] = target: HIV-1 Env of isolate MGRM-C-005 (HIV-1); assay: cell-based or functional assay
[32] = target: HIV-1 Env of pseudovirus isolate MGRM-G-015 (HIV-1); assay: cell-based or functional assay
[33] = target: HIV-1 Env of isolate MGRM-C-002 (HIV-1); assay: cell-based or functional assay
[34] = target: HIV-1 Env of pseudovirus isolate MGRM-G-009 (HIV-1); assay: cell-based or functional assay
[35] = target: HIV-1 Env of isolate MGRM-C-013 (HIV-1); assay: cell-based or functional assay
[36] = target: HIV-1 Env of isolate MGRM-C-010 (HIV-1); assay: cell-based or functional assay
[37] = target: HIV-1 Env of isolate MGRM-C-023 (HIV-1); assay: cell-based or functional assay
[38] = target: HIV-1 Env of pseudovirus isolate MGRM-G-014 (HIV-1); assay: cell-based or functional assay
WT JR-FL gp120 (HIV-1) = assay: ELISA, antigen-coated wells
[39] = target: HIV-1 MGRM-C-028 Env (pseudovirus) (HIV-1); assay: cell-based or functional assay
[40] = target: HIV-1 93IN905 Env (pseudovirus) (HIV-1); assay: cell-based or functional assay
[41] = target: HIV-1 JRCSF Env (pseudovirus) (HIV-1) (UniProt P20871); assay: cell-based or functional assay
[42] = target: HIV-1 92RW020 Env (pseudovirus) (HIV-1); assay: cell-based or functional assay
[43] = target: HIV-1 APV6 Env (pseudovirus) (HIV-1); assay: cell-based or functional assay
[44] = target: HIV-1 MGRM-A-010 Env (pseudovirus) (HIV-1); assay: cell-based or functional assay
[45] = target: HIV-1 MGRM-C-027 Env (pseudovirus) (HIV-1); assay: cell-based or functional assay
[46] = target: HIV-1 94UG103 Env (pseudovirus) (HIV-1); assay: cell-based or functional assay
[47] = target: HIV-1 MGRM-C-026 Env (pseudovirus) (HIV-1); assay: cell-based or functional assay
[48] = target: HIV-1 MGRM-D-018 Env (pseudovirus) (HIV-1); assay: cell-based or functional assay

4838_L06 (PGT-121) (antibody)
neutralization IC50 [1]: 25.1 µg/mL | neutralization IC50 [2]: 26.9 µg/mL | neutralization IC50 (pseudovirus) [3]: > 10 µg/mL | IC50 (µg/mL), pseudovirus neutralization [4]: 0.011 µg/mL | neutralization IC50 [5]: 0.017 µg/mL | neutralization IC50 [6]: 0.123 µg/mL | neutralization IC50 [7]: 0.009 µg/mL | IC50 (µg/mL), pseudovirus neutralization [8]: 3.17 µg/mL | IC50 (µg/mL), pseudovirus neutralization [9]: 0.124 µg/mL | IC50 (µg/mL), pseudovirus neutralization [10]: 0.115 µg/mL | neutralization IC50 [11]: > 50 µg/mL | neutralization IC50 [12]: 17.5 µg/mL | neutralization IC50 [13]: 0.012 µg/mL | neutralization IC50 (pseudovirus) [14]: > 10 µg/mL | IC50 (µg/mL), pseudovirus neutralization [15]: > 50 µg/mL | neutralization IC50 [16]: 0.196 µg/mL | neutralization IC50 [17]: > 50 µg/mL | neutralization IC50 [18]: 0.011 µg/mL | neutralization IC50 (pseudovirus) [19]: > 10 µg/mL | neutralization IC50 (pseudovirus) [20]: > 10 µg/mL | IC50 (µg/mL), pseudovirus neutralization [21]: 3.99 µg/mL | neutralization IC50 [22]: 0.015 µg/mL | IC50 (µg/mL), pseudovirus neutralization [23]: > 50 µg/mL | IC50 (µg/mL), pseudovirus neutralization [24]: 0.004 µg/mL | IC50 (µg/mL), pseudovirus neutralization [25]: > 50 µg/mL | neutralization IC50 (pseudovirus) [26]: > 10 µg/mL | neutralization IC50 [27]: > 50 µg/mL | neutralization IC50 [28]: 46.8 µg/mL | IC50 (µg/mL), pseudovirus neutralization [29]: 0.004 µg/mL | neutralization IC50 [30]: 0.052 µg/mL | neutralization IC50 [31]: 0.015 µg/mL | IC50 (µg/mL), pseudovirus neutralization [32]: > 50 µg/mL | neutralization IC50 [33]: 0.019 µg/mL | IC50 (µg/mL), pseudovirus neutralization [34]: 0.02 µg/mL | neutralization IC50 [35]: 7.23 µg/mL | neutralization IC50 [36]: > 50 µg/mL | neutralization IC50 [37]: 0.017 µg/mL | IC50 (µg/mL), pseudovirus neutralization [38]: 0.009 µg/mL | EC50 (WT JR-FL gp120 (HIV-1)): 0.2 µg/mL

4858_P08 (PGT-123) (antibody)
neutralization IC50 [1]: 13.1 µg/mL | neutralization IC50 [2]: 1 µg/mL | neutralization IC50 (pseudovirus) [39]: 0.443 µg/mL | neutralization IC50 (pseudovirus) [3]: > 10 µg/mL | neutralization IC50 (pseudovirus) [40]: 0.0071 µg/mL | IC50 (µg/mL), pseudovirus neutralization [4]: 0.008 µg/mL | neutralization IC50 (pseudovirus) [41]: 0.0423 µg/mL | neutralization IC50 [5]: 0.021 µg/mL | neutralization IC50 [6]: 0.606 µg/mL | neutralization IC50 [7]: 0.01 µg/mL | IC50 (µg/mL), pseudovirus neutralization [8]: 14.9 µg/mL | IC50 (µg/mL), pseudovirus neutralization [9]: 0.182 µg/mL | IC50 (µg/mL), pseudovirus neutralization [10]: 0.181 µg/mL | neutralization IC50 [11]: > 50 µg/mL | neutralization IC50 [12]: 42.4 µg/mL | neutralization IC50 [13]: 0.011 µg/mL | neutralization IC50 (pseudovirus) [14]: > 10 µg/mL | neutralization IC50 (pseudovirus) [42]: 0.0038 µg/mL | IC50 (µg/mL), pseudovirus neutralization [15]: > 50 µg/mL | neutralization IC50 [16]: 0.547 µg/mL | neutralization IC50 [17]: > 50 µg/mL | neutralization IC50 [18]: 0.009 µg/mL | neutralization IC50 (pseudovirus) [43]: 0.0328 µg/mL | neutralization IC50 (pseudovirus) [19]: > 10 µg/mL | neutralization IC50 (pseudovirus) [20]: 2.49 µg/mL | IC50 (µg/mL), pseudovirus neutralization [21]: 3.97 µg/mL | neutralization IC50 [22]: 0.01 µg/mL | neutralization IC50 (pseudovirus) [44]: 0.492 µg/mL | IC50 (µg/mL), pseudovirus neutralization [23]: > 50 µg/mL | neutralization IC50 (pseudovirus) [45]: 0.0169 µg/mL | IC50 (µg/mL), pseudovirus neutralization [24]: 0.009 µg/mL | IC50 (µg/mL), pseudovirus neutralization [25]: > 50 µg/mL | neutralization IC50 (pseudovirus) [46]: 0.846 µg/mL | neutralization IC50 (pseudovirus) [26]: > 10 µg/mL | neutralization IC50 [27]: > 50 µg/mL | neutralization IC50 [28]: 13.3 µg/mL | IC50 (µg/mL), pseudovirus neutralization [29]: 0.026 µg/mL | neutralization IC50 [30]: 0.195 µg/mL | neutralization IC50 [31]: 0.012 µg/mL | neutralization IC50 (pseudovirus) [47]: 0.0031 µg/mL | IC50 (µg/mL), pseudovirus neutralization [32]: > 50 µg/mL | neutralization IC50 [33]: 0.01 µg/mL | neutralization IC50 (pseudovirus) [48]: 0.0047 µg/mL | IC50 (µg/mL), pseudovirus neutralization [34]: 33.5 µg/mL | neutralization IC50 [35]: 14.9 µg/mL | neutralization IC50 [36]: > 50 µg/mL | neutralization IC50 [37]: 0.011 µg/mL | IC50 (µg/mL), pseudovirus neutralization [38]: 0.005 µg/mL | EC50 (WT JR-FL gp120 (HIV-1)): 0.2 µg/mL

5145_B14 (PGT-127) (antibody)
neutralization IC50 [1]: > 50 µg/mL | neutralization IC50 [2]: > 50 µg/mL | IC50 (µg/mL), pseudovirus neutralization [4]: 0.429 µg/mL | neutralization IC50 [5]: 0.319 µg/mL | neutralization IC50 [6]: 1.07 µg/mL | neutralization IC50 [7]: 3.4 µg/mL | IC50 (µg/mL), pseudovirus neutralization [8]: > 50 µg/mL | IC50 (µg/mL), pseudovirus neutralization [9]: > 50 µg/mL | IC50 (µg/mL), pseudovirus neutralization [10]: > 50 µg/mL | neutralization IC50 [11]: > 50 µg/mL | neutralization IC50 [12]: > 50 µg/mL | neutralization IC50 [13]: > 50 µg/mL | IC50 (µg/mL), pseudovirus neutralization [15]: > 50 µg/mL | neutralization IC50 [16]: > 50 µg/mL | neutralization IC50 [17]: > 50 µg/mL | neutralization IC50 [18]: 0.532 µg/mL | IC50 (µg/mL), pseudovirus neutralization [21]: 7.7 µg/mL | neutralization IC50 [22]: 0.41 µg/mL | IC50 (µg/mL), pseudovirus neutralization [23]: > 50 µg/mL | IC50 (µg/mL), pseudovirus neutralization [24]: 0.113 µg/mL | IC50 (µg/mL), pseudovirus neutralization [25]: > 50 µg/mL | neutralization IC50 [27]: 0.017 µg/mL | neutralization IC50 [28]: > 50 µg/mL | IC50 (µg/mL), pseudovirus neutralization [29]: > 50 µg/mL | neutralization IC50 [30]: > 50 µg/mL | neutralization IC50 [31]: 0.57 µg/mL | IC50 (µg/mL), pseudovirus neutralization [32]: > 50 µg/mL | neutralization IC50 [33]: 0.057 µg/mL | IC50 (µg/mL), pseudovirus neutralization [34]: > 50 µg/mL | neutralization IC50 [35]: > 50 µg/mL | neutralization IC50 [36]: > 50 µg/mL | neutralization IC50 [37]: 1.08 µg/mL | IC50 (µg/mL), pseudovirus neutralization [38]: 0.009 µg/mL | EC50 (WT JR-FL gp120 (HIV-1)): 0.1 µg/mL
